This note sets out measurements from publication PMC8217500.

Bounds are passed on as bounds.

Assay [1] addresses Fc-tagged SARS-CoV-2 spike receptor-binding domain (RBD) (SARS-CoV-2) (UniProt P0DTC2). Briefly: BLI; Fc-tagged RBD (20 ug/ml) loaded on anti-hIgG Fc Capture (AHC) biosensors, Fab in solution; room temperature; 1x PBS pH 7.4, 0.01% BSA, 0.002% Tween 20; 1:1 binding model. For orientation: BLI is a label-free optical method that tracks binding on a fibre tip over time.
Assay [2] has as its target Fc-tagged SARS-CoV-2 receptor-binding domain (RBD), wild type (SARS-CoV-2) (UniProt P0DTC2). Nature of the assay: BLI; Fc-tagged RBD (20 ug/ml) loaded on anti-hIgG Fc Capture (AHC) biosensors, Fab in solution at four to five concentrations; Octet Red96e, room temperature, 1x kinetics buffer (1x PBS pH 7.4, 0.01% w/v BSA, 0.002% v/v Tween 20); 1:1 binding model.

In the case of “COVD21-C8 Fab, Y58 variant (heavy chain F58Y)”, the Kd (usually a measure of binding affinity in units of concentration) in assay [1] stood at 2000 nM. In other words, the single-digit micromolar range. In assay [2], COVD21-C8 F58Y Fab had a Kd greater than 1000 nM.
